Laboratory results from publication PMC6477676, “Staufen2-mediated RNA recognition and localization requires combinatorial action of multiple domains”.

Experiments:
mStau2 full-length = molecular target: T1, mStau2 full-length (Mus musculus, UniProt Q8CJ67 1-570); assay: EMSA; stated as 100 nM range; SPR: HBS-EP (10 mM HEPES pH 7.4, 150 mM NaCl, 3 mM EDTA, 0.005% P20); EMSA: 5 nM RNA, protein buffer (40 mM Bis-Tris pH 7, 150 mM NaCl, 2 mM DTT presumed), 4% glycerol, 30 ug/mL yeast tRNA, RT; NMR: 150 mM NaCl, 20 mM Na phosphate pH 7.0, 5 mM DTT, 298 K; settings: protein: recombinant; tags: HisSUMO; label: 5' 32P (EMSA); biotin (SPR); imperfect hairpin, 26 bp with two bulges
T1 sequence: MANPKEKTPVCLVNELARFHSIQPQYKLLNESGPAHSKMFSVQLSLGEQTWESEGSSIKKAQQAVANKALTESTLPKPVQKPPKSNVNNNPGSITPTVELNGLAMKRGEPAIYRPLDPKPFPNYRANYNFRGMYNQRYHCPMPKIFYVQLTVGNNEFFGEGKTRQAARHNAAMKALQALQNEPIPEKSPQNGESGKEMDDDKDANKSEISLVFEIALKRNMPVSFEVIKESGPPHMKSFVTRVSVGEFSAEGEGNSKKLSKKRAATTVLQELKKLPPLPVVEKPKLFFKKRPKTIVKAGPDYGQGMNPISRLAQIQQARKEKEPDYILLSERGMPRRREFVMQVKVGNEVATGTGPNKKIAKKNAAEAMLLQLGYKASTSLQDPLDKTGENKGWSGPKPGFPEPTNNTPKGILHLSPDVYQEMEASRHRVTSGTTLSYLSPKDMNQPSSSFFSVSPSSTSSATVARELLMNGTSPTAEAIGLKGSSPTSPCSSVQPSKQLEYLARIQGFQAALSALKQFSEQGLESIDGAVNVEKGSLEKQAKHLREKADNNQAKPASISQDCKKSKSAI

mStau2 dsRBD1-2 F40A = molecular target: T2, mStau2 dsRBD1-2 F40A (Mus musculus, UniProt Q8CJ67 8-181, F40A); assay: SPR; Hill n 1; SPR: HBS-EP (10 mM HEPES pH 7.4, 150 mM NaCl, 3 mM EDTA, 0.005% P20); EMSA: 5 nM RNA, protein buffer (40 mM Bis-Tris pH 7, 150 mM NaCl, 2 mM DTT presumed), 4% glycerol, 30 ug/mL yeast tRNA, RT; NMR: 150 mM NaCl, 20 mM Na phosphate pH 7.0, 5 mM DTT, 298 K; settings: protein: recombinant; label: 5' 32P (EMSA); biotin (SPR); imperfect hairpin, 26 bp with two bulges
T2 sequence: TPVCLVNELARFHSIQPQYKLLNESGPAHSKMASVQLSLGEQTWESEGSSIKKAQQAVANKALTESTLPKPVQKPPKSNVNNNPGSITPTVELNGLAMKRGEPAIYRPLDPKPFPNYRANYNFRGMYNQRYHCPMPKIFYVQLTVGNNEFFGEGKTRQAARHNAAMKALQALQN

mStau2 dsRBD1 = molecular target: T3, mStau2 dsRBD1 (Mus musculus, UniProt Q8CJ67 8-75); assay: SPR; up to 1 uM; SPR: HBS-EP (10 mM HEPES pH 7.4, 150 mM NaCl, 3 mM EDTA, 0.005% P20); EMSA: 5 nM RNA, protein buffer (40 mM Bis-Tris pH 7, 150 mM NaCl, 2 mM DTT presumed), 4% glycerol, 30 ug/mL yeast tRNA, RT; NMR: 150 mM NaCl, 20 mM Na phosphate pH 7.0, 5 mM DTT, 298 K; settings: protein: recombinant; label: 5' 32P (EMSA); biotin (SPR); imperfect hairpin, 26 bp with two bulges
T3 sequence: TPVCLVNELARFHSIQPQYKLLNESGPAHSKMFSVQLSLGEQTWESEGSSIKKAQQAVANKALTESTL

mStau2 dsRBD1-2 H36A = molecular target: T4, mStau2 dsRBD1-2 H36A (Mus musculus, UniProt Q8CJ67 8-181, H36A); assay: SPR; Hill n 1; SPR: HBS-EP (10 mM HEPES pH 7.4, 150 mM NaCl, 3 mM EDTA, 0.005% P20); EMSA: 5 nM RNA, protein buffer (40 mM Bis-Tris pH 7, 150 mM NaCl, 2 mM DTT presumed), 4% glycerol, 30 ug/mL yeast tRNA, RT; NMR: 150 mM NaCl, 20 mM Na phosphate pH 7.0, 5 mM DTT, 298 K; settings: protein: recombinant; label: 5' 32P (EMSA); biotin (SPR); hairpin, 18 bp stem
T4 sequence: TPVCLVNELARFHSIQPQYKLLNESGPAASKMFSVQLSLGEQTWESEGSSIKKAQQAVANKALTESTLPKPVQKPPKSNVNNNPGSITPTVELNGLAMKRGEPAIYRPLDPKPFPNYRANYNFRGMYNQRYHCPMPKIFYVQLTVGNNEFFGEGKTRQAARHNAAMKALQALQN

mStau2 dsRBD1-2 E15A = molecular target: T5, mStau2 dsRBD1-2 E15A (Mus musculus, UniProt Q8CJ67 8-181, E15A); assay: as above; settings: protein: recombinant; label: 5' 32P (EMSA); biotin (SPR); hairpin, 18 bp stem
T5 sequence: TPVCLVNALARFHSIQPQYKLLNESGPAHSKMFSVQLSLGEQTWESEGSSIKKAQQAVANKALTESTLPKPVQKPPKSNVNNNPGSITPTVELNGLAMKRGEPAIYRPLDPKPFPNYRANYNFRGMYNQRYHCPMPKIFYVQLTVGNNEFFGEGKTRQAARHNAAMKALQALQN

B1: SRS* (SRS3) (structured_RNA)
RNA: GGUAUGUGUGAAUGUGCAUGAAUAUAUAUAUAUAUGCAUAUAUAUAUUUGUAUAUGUUCACACAUG
Kd (mStau2 full-length): ~100 nM | Kd (mStau2 dsRBD1-2 F40A): 769 ± 427 nM | binding result (mStau2 dsRBD1): no binding

GGUAUAUACAUGCACAUGCAAUUUGUGUAUGUGUAUGUAUAUA (structured_RNA) [SRS2+5]
Kd (mStau2 dsRBD1-2 H36A): 701 ± 386 nM | Kd (mStau2 dsRBD1-2 E15A): 132 ± 31 nM
